Source: patent publication EP4289863A9 (Shanghai Huaota Biopharmaceutical Co., Ltd., dated 2024)

B1: anti-IL-36R chimeric antibody 900497 (antibody, V domains shown)
VH: QVQLQQTGSVLVRPGTSVKLSCKASGYTFTSSWMHWAKQRPGQGLEWIGEIHPNSAKTNYNEKFKGKATLTVDTFSSTAYVDLSSLASEDSAVYYCARVDYGKPWFAYWGQGTLVTVSA
VL: QIVLTQSPTIMSASPGERVTMTCSASSSVSSSYLHWYQQKPGSSPKLWIYSTSNLASGVPARFSGSGSGTSYSLTINSMEAEDAATYYCQQFQSSPLTFGAGTKLGLK
notes: Human-mouse chimera: human IgG1 heavy constant region with L234A and L235A (Eu numbering), human kappa light constant region
B2: humanized anti-IL-36R antibody 900527 (antibody, V domains shown)
VH: QVQLVQSGAEVKKPGASVKVSCKASGYTFTSSWMHWAKQAPGQGLEWIGEIHPNSAKTNYNQKFQGRVTMTRDTSISTAYMELSRLRSDDTAVYYCARVDYGKPWFAYWGQGTLVTVSS
VL: QIVLTQSPGTLSLSPGERATLSCRASSSVSSSYLHWYQQKPGQAPRLWIYSTSSRATGIPDRFSGSGSGTDFTLTISRLEPEDFATYYCQQFQSSPLTFGQGTKLEIK
notes: IgG1 (vector with L234A, L235A) and human kappa
B3: humanized anti-IL-36R antibody 900534 (antibody, V domains shown)
VH: QVQLVQSGAEVKKPGASVKVSCKASGYTFTSSWMHWAKQAPGQGLEWIGEIHPNSAKTNYNQKFQGRVTMTRDTSISTAYMELSRLRSDDTAVYYCARVDYGKPWFAYWGQGTLVTVSS
VL: QIVLTQSPGTLSLSPGERATLSCRASSSVSSSYLHWYQQKPGQAPRLLIYSTSSRATGIPDRFSGSGSGTDFTLTISRLEPEDFATYYCQQFQSSPLTFGQGTKLEIK
notes: as for B2
B4: humanized anti-IL-36R antibody 900513 (antibody, V domains shown)
VH: QVQLVQSGAEVKKPGASVKVSCKASGYTFTSSWMHWAKQAPGQGLEWIGEIHPNSAKTNYNQKFQGRVTMTRDTSISTAYMELSRLRSDDTAVYYCARVDYGKPWFAYWGQGTLVTVSS
VL: EIVLTQSPGTLSLSPGERATLSCSASSSVSSSYLHWYQQKPGQAPRLWIYSTSNRATGIPDRFSGSGSGTDFTLTISRLEPEDFATYYCQQFQSSPLTFGQGTKLEIK
notes: as for B2
B5: IL17A-IL36R bispecific antibody 700007 (bispecific antibody)
heavy (part 1 of 2): QVQLVQSGSELKKPGASVKVSCKASEYIFTNYGMNWVKQAPGQGFEWMGWIDTNTGEPTYAQGFTGRFVFSLDTSVSTAYLQISSLKAEDTATYYCANYGWGYFDYWGQGTTVTVSS
heavy (part 2 of 2): GGGGSGGGGSGGGGSGGGGSQIVLTQSPGTLSLSPGERATLSCRASSSVSSSYLHWYQQKPGQAPRLWIYSTSSRATGIPDRFSGSGSGTDFTLTISRLEPEDFATYYCQQFQSSPLTFGQGTKLEIKGGGGSGGGGSGGGGSGGGGSQVQLVQSGAEVKKPGASVKVSCKASGYTFTSSWMHWAKQAPGQGLEWIGEIHPNSAKTNYNQKFQGRVTMTRDTSISTAYMELSRLRSDDTAVYYCARVDYGKPWFAYWGQGTLVTVSS
light: DVVMTQTPPSLPVNPGEPASISCRSSQSLVHSNGYTYLHWYLQKPGQSPQLLIYKVSNHLSGVPDRFSGSGSGTDFTLKISWVEAEDVGVYFCSQSTHVPYTFGGGTKLEIKRTVAAPSVFIFPPSDEQLKSGTASVVCLLNNFYPREAKVQWKVDNALQSGNSQESVTEQDSKDSTYSLSSTLTLSKADYEKHKVYACEVTHQGLSSPVTKSFNRGEC
notes: not shown: heavy constant region CH1-CH2-CH3
B6: IL17A-IL36R bispecific antibody 700009 (bispecific antibody)
heavy (part 1 of 2): QVQLVQSGSELKKPGASVKVSCKASEYIFTNYGMNWVKQAPGQGFEWMGWIDTNTGEPTYAQGFTGRFVFSLDTSVSTAYLQISSLKAEDTATYYCANYGWGYFDYWGQGTTVTVSS
heavy (part 2 of 2): GGGGSGGGGSGGGGSGGGGSQIVLTQSPGTLSLSPGERATLSCRASSSVSSSYLHWYQQKPGQAPRLWIYSTSSRATGIPDRFSGSGSGTDFTLTISRLEPEDFATYYCQQFQSSPLTFGQGTKLEIKGGGGSGGGGSGGGGSGGGGSGGGGSQVQLVQSGAEVKKPGASVKVSCKASGYTFTSSWMHWAKQAPGQGLEWIGEIHPNSAKTNYNQKFQGRVTMTRDTSISTAYMELSRLRSDDTAVYYCARVDYGKPWFAYWGQGTLVTVSS
light: DVVMTQTPPSLPVNPGEPASISCRSSQSLVHSNGYTYLHWYLQKPGQSPQLLIYKVSNHLSGVPDRFSGSGSGTDFTLKISWVEAEDVGVYFCSQSTHVPYTFGGGTKLEIKRTVAAPSVFIFPPSDEQLKSGTASVVCLLNNFYPREAKVQWKVDNALQSGNSQESVTEQDSKDSTYSLSSTLTLSKADYEKHKVYACEVTHQGLSSPVTKSFNRGEC
notes: as for B5

Tests used:
human IL-36R [1] = biological target: T1, human IL-36R (human, UniProt Q9HB29 20-575); test: cell-based or functional assay
T1 sequence (looked up): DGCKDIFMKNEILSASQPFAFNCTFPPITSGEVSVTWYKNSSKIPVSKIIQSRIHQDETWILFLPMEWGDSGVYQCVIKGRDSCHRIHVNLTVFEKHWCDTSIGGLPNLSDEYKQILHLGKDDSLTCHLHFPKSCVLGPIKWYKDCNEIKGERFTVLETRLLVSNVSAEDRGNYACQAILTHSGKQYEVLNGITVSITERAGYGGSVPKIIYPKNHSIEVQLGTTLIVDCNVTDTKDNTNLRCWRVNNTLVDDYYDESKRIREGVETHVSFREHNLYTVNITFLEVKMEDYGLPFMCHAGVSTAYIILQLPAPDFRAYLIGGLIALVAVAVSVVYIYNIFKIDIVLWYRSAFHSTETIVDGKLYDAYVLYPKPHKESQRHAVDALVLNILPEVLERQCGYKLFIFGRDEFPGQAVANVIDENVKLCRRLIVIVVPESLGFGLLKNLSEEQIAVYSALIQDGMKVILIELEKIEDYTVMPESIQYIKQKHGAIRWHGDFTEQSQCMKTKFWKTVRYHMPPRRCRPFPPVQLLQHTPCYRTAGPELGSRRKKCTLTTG

human IL-36R [2] = biological target: T1, human IL-36R; test: cell-based or functional assay; remark: listed apart in the source
human IL-36R [3] = biological target: T1, human IL-36R; test: cell-based or functional assay; remark: listed apart in the source
[4] = biological target: T2, His-tagged human IL-1 Rrp2/IL-1R6 protein (human, UniProt Q9HB29 20-335, limits assumed); test: SPR Biacore 8K, His-tagged antigen captured by anti-His antibody, antibody as analyte, 1:1 model
T2 construct: Bought protein; also called His-tagged human IL-1 Rrp2/IL-IR6 protein; not shown: His tag
T2 sequence (looked up): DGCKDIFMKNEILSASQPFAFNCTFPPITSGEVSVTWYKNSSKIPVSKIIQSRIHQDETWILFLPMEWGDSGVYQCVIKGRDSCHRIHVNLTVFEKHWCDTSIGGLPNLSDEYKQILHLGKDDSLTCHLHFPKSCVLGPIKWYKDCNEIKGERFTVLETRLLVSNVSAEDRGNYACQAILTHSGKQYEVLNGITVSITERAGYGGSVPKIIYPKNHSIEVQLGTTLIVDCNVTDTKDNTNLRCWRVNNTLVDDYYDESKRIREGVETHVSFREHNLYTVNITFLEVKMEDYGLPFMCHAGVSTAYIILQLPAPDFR

human IL-36R [5] = biological target: T1, human IL-36R; test: cell-based or functional assay; remark: listed apart in the source
human IL-36R [6] = biological target: T1, human IL-36R; test: cell-based or functional assay; remark: listed apart in the source
[7] = biological target: T3, IL36R (analyte of Table 17) (Homo sapiens (Human), UniProt Q9HB29 20-335); test: SPR Biacore 8K, antibody captured on anti-human chip, antigen as analyte, 1:1 model
T3 sequence: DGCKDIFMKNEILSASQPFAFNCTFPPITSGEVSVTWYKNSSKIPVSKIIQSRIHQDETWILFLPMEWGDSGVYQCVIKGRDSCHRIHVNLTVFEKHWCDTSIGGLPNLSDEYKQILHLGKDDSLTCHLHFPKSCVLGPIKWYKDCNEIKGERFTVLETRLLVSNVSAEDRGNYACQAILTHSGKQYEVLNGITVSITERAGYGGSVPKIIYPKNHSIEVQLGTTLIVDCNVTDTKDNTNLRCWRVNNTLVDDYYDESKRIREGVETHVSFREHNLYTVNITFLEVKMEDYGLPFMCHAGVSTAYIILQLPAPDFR

human IL-36R [8] = biological target: T1, human IL-36R; test: flow cytometry on CHO-K1-huIL-36R-5E10/2F10 cells
monkey IL-36R = biological target: T4, monkey IL-36R (monkey); test: flow cytometry on CHO-K1 cells expressing monkey IL-36R
T4 construct: whole, on cells

human IL-36R [9] = biological target: T1, human IL-36R; test: cell-based or functional assay; remark: listed apart in the source
human IL-36R [10] = biological target: T1, human IL-36R; test: flow cytometry on CHO-K1 cells expressing human IL-36R
Human IL-17A = biological target: T5, Human IL-17A (human, UniProt Q16552 24-155); test: cell-based or functional assay
T5 sequence (looked up): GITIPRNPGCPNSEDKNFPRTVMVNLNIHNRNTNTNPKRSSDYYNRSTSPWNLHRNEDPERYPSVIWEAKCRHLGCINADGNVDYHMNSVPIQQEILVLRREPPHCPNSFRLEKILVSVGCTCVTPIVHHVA

[11] = biological target: T6, IL17A (analyte of Table 17) (Homo sapiens (Human), UniProt Q16552 24-155); test: SPR Biacore 8K, antibody captured on anti-human chip, antigen as analyte, 1:1 model
T6 sequence: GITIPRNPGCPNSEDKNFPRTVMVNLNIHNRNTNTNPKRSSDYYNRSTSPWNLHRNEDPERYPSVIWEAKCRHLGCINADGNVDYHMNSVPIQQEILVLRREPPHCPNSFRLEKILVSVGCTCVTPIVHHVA

Binder	HuIL-6 detected in HIF under IL-36β stimulation IC50 (human IL-36R [1])	IC50 of GM-CSF release, NCI/ADR-RES cells stimulated with IL-36α (human IL-36R [2])	IC50 of GM-CSF release, NCI/ADR-RES cells stimulated with IL-36β (human IL-36R [2])	IC50 of GM-CSF release, NCI/ADR-RES cells stimulated with IL-36γ (human IL-36R [2])	IC50 of IL-6 release, NCI/ADR-RES cells stimulated with IL-36α (human IL-36R [2])	IC50 of IL-6 release, NCI/ADR-RES cells stimulated with IL-36β (human IL-36R [2])	IC50 of IL-6 release, NCI/ADR-RES cells stimulated with IL-36γ (human IL-36R [2])	IC50 of IL-8 release, NCI/ADR-RES cells stimulated with IL-36α (human IL-36R [2])	IC50 of IL-8 release, NCI/ADR-RES cells stimulated with IL-36β (human IL-36R [2])	IC50 of IL-8 release, NCI/ADR-RES cells stimulated with IL-36γ (human IL-36R [2])	IC50 of pNF-κB, NCI/ADR-RES cells stimulated with IL-36β (human IL-36R [2])	HuIL-6 detected in HIF under IL-36α stimulation IC50 (human IL-36R [3])	Kd [4]	koff [4]	kon [4]	pNFκB detected in HIF under IL-36β stimulation IC50 (human IL-36R [5])	EC50 (human IL-36R [8])	EC50 of inhibition of IL-6 content, NCI/ADR-RES cells stimulated with IL-36β (human IL-36R [9])	EC50 of inhibition of IL-6 secretion, HT-1080 cells stimulated with h IL17-A and h TNF-α (Human IL-17A)	Kd [11]	other results
B1	0.0837 µg/mL	0.0328 µg/mL	0.0224 µg/mL	0.0288 µg/mL	0.0332 µg/mL	0.0204 µg/mL	0.0198 µg/mL	0.0439 µg/mL	0.0292 µg/mL	0.0284 µg/mL	115 ng/mL	0.146 µg/mL	0.0254 nM	1.68e-05 s⁻¹	660000 M⁻¹ s⁻¹	0.1 µg/mL	–	–	–	–	–
B2	0.0546 µg/mL	0.022 µg/mL	0.0174 µg/mL	0.0198 µg/mL	0.015 µg/mL	0.0139 µg/mL	0.0162 µg/mL	0.0315 µg/mL	0.0223 µg/mL	0.0198 µg/mL	71.4 ng/mL	0.0479 µg/mL	0.0452 nM	4.37e-05 s⁻¹	967000 M⁻¹ s⁻¹	0.105 µg/mL	0.32 nM	0.069 nM	–	–	HuIL-6 detected in NCI/ADR-RES under IL-36β stimulation IC50 (human IL-36R [6]): 0.00887 µg/mL; Kd [7]: 0.141 nM; koff [7]: 0.00015 s⁻¹; kon [7]: 1.07e+06 M⁻¹ s⁻¹; EC50 (monkey IL-36R): 0.0595 µg/mL; EC50 (human IL-36R [10]): 0.062 µg/mL
B3	–	0.0202 µg/mL	0.0186 µg/mL	0.021 µg/mL	0.0216 µg/mL	0.0168 µg/mL	0.0176 µg/mL	0.0304 µg/mL	0.022 µg/mL	0.018 µg/mL	64.9 ng/mL	–	0.0579 nM	5.1e-05 s⁻¹	881000 M⁻¹ s⁻¹	–	–	–	–	–	–
B4	–	0.0206 µg/mL	0.0184 µg/mL	0.0179 µg/mL	0.0124 µg/mL	0.0223 µg/mL	0.0121 µg/mL	0.0398 µg/mL	0.0221 µg/mL	0.018 µg/mL	105 ng/mL	–	0.0148 nM	1.34e-05 s⁻¹	904000 M⁻¹ s⁻¹	–	–	–	–	–	–
B5	–	–	–	–	–	–	–	–	–	–	–	–	–	–	–	–	0.693 nM	0.48 nM	0.0766 nM	0.00613 nM	koff [11]: 4.33e-05 s⁻¹; kon [11]: 7.06e+06 M⁻¹ s⁻¹
B6	–	–	–	–	–	–	–	–	–	–	–	–	–	–	–	–	0.799 nM	0.65 nM	0.0999 nM	0.00796 nM	koff [11]: 5.71e-05 s⁻¹; kon [11]: 7.17e+06 M⁻¹ s⁻¹
